Measurements from patent publication US20260242735A1 (UNIVERSIT T BASEL, published 2026).
Each block holds one binder with its values, some of them ahead of it.

How the values were obtained:
human CD33 variant Y49C = human CD33 variant Y49C (human, UniProt P20138 18-364); assay: flow cytometry, IgG on cells expressing the mutant
Experimental: (§1) An alanine scan on human CD33 was performed to the determine the residues on CD33 that are involved in binding to the antibodies investigated. […] Briefly, a mutation library of CD33 was created by high-throughput, site-directed mutagenesis. Each residue was individually mutated to alanine, with alanine codons mutated to serine. The mutant library was arrayed in 384-well microplates and transiently transfected into HEK293-T. Following transfection, cells were incubated with the indicated antibodies (IgG or Fab) at concentrations pre-determined using an independent immunofluorescence titration curve on wild type CD33. […] Binding of each antibody to each mutant clone was determined in duplicates. For each point, background fluorescence was subtracted from the raw data, which were then normalized to antibody reactivity with wild type CD33.
(§2) Antibodies were screened for binding to the human CD33 variants in IgG format. […] For each mutation, background fluorescence was subtracted from the raw data, which were then normalized to antibody reactivity with wild-type CD33.

human CD33 variant P48S = human CD33 variant P48S (human, UniProt P20138 18-364); assay: flow cytometry, IgG on cells expressing the mutant
Experimental: as §1, §2

human CD33 variant Y49R = human CD33 variant Y49R (human, UniProt P20138 18-364); assay: flow cytometry, IgG on cells expressing the mutant
Experimental: as §1, §2

human CD33 variant I47P = human CD33 variant I47P (human, UniProt P20138 18-364); assay: flow cytometry, IgG on cells expressing the mutant
Chain of human CD33 variant I47P (P20138 18-364 I47P limits assumed): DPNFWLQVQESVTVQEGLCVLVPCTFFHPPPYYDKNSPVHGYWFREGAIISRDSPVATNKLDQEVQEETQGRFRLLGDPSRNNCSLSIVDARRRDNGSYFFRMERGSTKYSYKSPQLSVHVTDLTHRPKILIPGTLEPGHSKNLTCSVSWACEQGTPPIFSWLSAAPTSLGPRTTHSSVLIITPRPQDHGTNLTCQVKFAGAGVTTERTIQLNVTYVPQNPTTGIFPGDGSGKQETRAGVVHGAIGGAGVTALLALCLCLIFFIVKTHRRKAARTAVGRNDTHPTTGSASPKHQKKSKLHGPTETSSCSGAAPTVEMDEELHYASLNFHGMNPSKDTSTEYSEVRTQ
Experimental: as §1, §2

human CD33 variant Y50P = human CD33 variant Y50P (human, UniProt P20138 18-364); assay: flow cytometry, IgG on cells expressing the mutant
Experimental: as §1, §2

human CD33 variant D51N = human CD33 variant D51N (human, UniProt P20138 18-364); assay: flow cytometry, IgG on cells expressing the mutant
Experimental: as §1, §2

human CD33 variant K52T = human CD33 variant K52T (human, UniProt P20138 18-364); assay: flow cytometry, IgG on cells expressing the mutant
Experimental: as §1, §2

human CD33 variant Y50V = human CD33 variant Y50V (human, UniProt P20138 18-364); assay: flow cytometry, IgG on cells expressing the mutant
Chain of human CD33 variant Y50V (P20138 18-364 Y50V limits assumed): as the sequence (P20138 18-364 I47P limits assumed) above, with P30I, Y33V counted along it
Experimental: as §1, §2

human CD33 variant K52H = human CD33 variant K52H (human, UniProt P20138 18-364); assay: flow cytometry, IgG on cells expressing the mutant
Experimental: as §1, §2

human CD33 variant P48V = human CD33 variant P48V (human, UniProt P20138 18-364); assay: flow cytometry, IgG on cells expressing the mutant
Experimental: as §1, §2

human CD33 variant Y49H = human CD33 variant Y49H (human, UniProt P20138 18-364); assay: flow cytometry, IgG on cells expressing the mutant
Experimental: as §1, §2

human CD33 variant Y50I = human CD33 variant Y50I (human, UniProt P20138 18-364); assay: flow cytometry, IgG on cells expressing the mutant
Experimental: as §1, §2

human CD33 variant M120I = human CD33 variant M120I (human, UniProt P20138 18-364); assay: flow cytometry, IgG on cells expressing the mutant
Experimental: as §1, §2

human CD33 variant I47N = human CD33 variant I47N (human, UniProt P20138 18-364); assay: flow cytometry, IgG on cells expressing the mutant
Experimental: as §1, §2

human CD33 variant P48Q = human CD33 variant P48Q (human, UniProt P20138 18-364); assay: flow cytometry, IgG on cells expressing the mutant
Experimental: as §1, §2

human CD33 variant Y49I = human CD33 variant Y49I (human, UniProt P20138 18-364); assay: flow cytometry, IgG on cells expressing the mutant
Experimental: as §1, §2

human CD33 variant R122S = human CD33 variant R122S (human, UniProt P20138 18-364); assay: flow cytometry, IgG on cells expressing the mutant
Experimental: as §1, §2

human CD33 variant K52F = human CD33 variant K52F (human, UniProt P20138 18-364); assay: flow cytometry, IgG on cells expressing the mutant
Experimental: as §1, §2

human CD33 variant R122T = human CD33 variant R122T (human, UniProt P20138 18-364); assay: flow cytometry, IgG on cells expressing the mutant
Experimental: as §1, §2

human CD33 variant M120L = human CD33 variant M120L (human, UniProt P20138 18-364); assay: flow cytometry, IgG on cells expressing the mutant
Experimental: as §1, §2

human CD33 variant I47W = human CD33 variant I47W (human, UniProt P20138 18-364); assay: flow cytometry, IgG on cells expressing the mutant
Experimental: as §1, §2

human CD33 variant P48M = human CD33 variant P48M (human, UniProt P20138 18-364); assay: flow cytometry, IgG on cells expressing the mutant
Experimental: as §1, §2

human CD33 variant Y50R = human CD33 variant Y50R (human, UniProt P20138 18-364); assay: flow cytometry, IgG on cells expressing the mutant
Chain of human CD33 variant Y50R (P20138 18-364 Y50R limits assumed): as the sequence (P20138 18-364 I47P limits assumed) above, with P30I, Y33R counted along it
Experimental: as §1, §2

human CD33 variant K52D = human CD33 variant K52D (human, UniProt P20138 18-364); assay: flow cytometry, IgG on cells expressing the mutant
Experimental: as §1, §2

human CD33 variant Y49Q = human CD33 variant Y49Q (human, UniProt P20138 18-364); assay: flow cytometry, IgG on cells expressing the mutant
Experimental: as §1, §2

human CD33 variant Y50S = human CD33 variant Y50S (human, UniProt P20138 18-364); assay: flow cytometry, IgG on cells expressing the mutant
Experimental: as §1, §2

human CD33 variant Y49T = human CD33 variant Y49T (human, UniProt P20138 18-364); assay: flow cytometry, IgG on cells expressing the mutant
Chain of human CD33 variant Y49T (P20138 18-364 Y49T limits assumed): as the sequence (P20138 18-364 I47P limits assumed) above, with P30I, Y32T counted along it
Experimental: as §1, §2

human CD33 N53A = human CD33 N53A (human, UniProt P20138 18-364); assay: alanine scan, flow cytometry;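 further: HEK293-T cells transiently expressing single-residue alanine mutants of CD33 (alanine swapped to serine), antibody binding read by fluorescence in duplicate, background-subtracted, expressed relative to wild-type CD33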
Chain of human CD33 N53A (P20138 18-364 N53A limits assumed): as the sequence (P20138 18-364 I47P limits assumed) above, with P30I, N36A counted along it
Experimental: as §1
(§3) Critical residues for antibody binding (outlined in dark grey) were residues whose mutations led to a binding of the test Abs of less than 20%. Additional secondary residues (outlined in light grey) were identified that led to a binding of the test Abs of between 20 and 40% as compared to the wild type CD33.

human CD33 L78A = human CD33 L78A (human, UniProt P20138 18-364); assay: alanine scan, flow cytometry;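 further: HEK293-T cells transiently expressing single-residue alanine mutants of CD33 (alanine swapped to serine), antibody binding read by fluorescence in duplicate, background-subtracted, expressed relative to wild-type CD33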
Chain of human CD33 L78A (P20138 18-364 L78A limits assumed): as the sequence (P20138 18-364 I47P limits assumed) above, with P30I, L61A counted along it
Experimental: as §1, §3

human CD33 Q83A = human CD33 Q83A (human, UniProt P20138 18-364); assay: alanine scan, flow cytometry;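 further: HEK293-T cells transiently expressing single-residue alanine mutants of CD33 (alanine swapped to serine), antibody binding read by fluorescence in duplicate, background-subtracted, expressed relative to wild-type CD33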
Chain of human CD33 Q83A (P20138 18-364 Q83A limits assumed): as the sequence (P20138 18-364 I47P limits assumed) above, with P30I, Q66A counted along it
Experimental: as §1, §3

human CD33 L38A = human CD33 L38A (human, UniProt P20138 18-364); assay: alanine scan, flow cytometry;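 further: HEK293-T cells transiently expressing single-residue alanine mutants of CD33 (alanine swapped to serine), antibody binding read by fluorescence in duplicate, background-subtracted, expressed relative to wild-type CD33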
Chain of human CD33 L38A (P20138 18-364 L38A limits assumed): as the sequence (P20138 18-364 I47P limits assumed) above, with L21A, P30I counted along it
Experimental: as §1, §3

human CD33 F90A = human CD33 F90A (human, UniProt P20138 18-364); assay: alanine scan, flow cytometry
Chain of human CD33 F90A (P20138 18-364 F90A limits assumed): as the sequence (P20138 18-364 I47P limits assumed) above, with P30I, F73A counted along it
Experimental: as §1, §3

human CD33 V25A = human CD33 V25A (human, UniProt P20138 18-364); assay: alanine scan, flow cytometry
Chain of human CD33 V25A (P20138 18-364 V25A limits assumed): as the sequence (P20138 18-364 I47P limits assumed) above, with V8A, P30I counted along it
Experimental: as §1, §3

human CD33 P46A = human CD33 P46A (human, UniProt P20138 18-364); assay: alanine scan, flow cytometry
Chain of human CD33 P46A (P20138 18-364 P46A limits assumed): as the sequence (P20138 18-364 I47P limits assumed) above, with P29A, P30I counted along it
Experimental: as §1, §3

human CD33 R89A = human CD33 R89A (human, UniProt P20138 18-364); assay: alanine scan, flow cytometry
Chain of human CD33 R89A (P20138 18-364 R89A limits assumed): as the sequence (P20138 18-364 I47P limits assumed) above, with P30I, R72A counted along it
Experimental: as §1, §3

human CD33 D18A = human CD33 D18A (human, UniProt P20138 19-364); assay: alanine scan, flow cytometry
Chain of human CD33 D18A (P20138 18-364 D18A limits assumed): as the sequence (P20138 18-364 I47P limits assumed) above, with D1A, P30I counted along it
Experimental: as §1, §3

human CD33 P55A = human CD33 P55A (human, UniProt P20138 18-364); assay: alanine scan, flow cytometry
Chain of human CD33 P55A (P20138 18-364 P55A limits assumed): as the sequence (P20138 18-364 I47P limits assumed) above, with P30I, P38A counted along it
Experimental: as §1, §3

Mean % WT Binding (human CD33 variant Y49C): 3.2 % of WT
Mean % WT Binding (human CD33 variant P48S): 92.1 % of WT
Mean % WT Binding (human CD33 variant Y49R): 44.9 % of WT
Mean % WT Binding (human CD33 variant I47P): 0.7 % of WT
Mean % WT Binding (human CD33 variant Y50P): 95.8 % of WT
Mean % WT Binding (human CD33 variant D51N): 96.7 % of WT
Mean % WT Binding (human CD33 variant K52T): 120 % of WT
Mean % WT Binding (human CD33 variant Y50V): 126 % of WT
Mean % WT Binding (human CD33 variant K52H): 84.7 % of WT
Mean % WT Binding (human CD33 variant P48V): 79.5 % of WT
Mean % WT Binding (human CD33 variant Y49H): 17.2 % of WT
Mean % WT Binding (human CD33 variant Y50I): 126 % of WT
Mean % WT Binding (human CD33 variant M120I): 95.7 % of WT
Mean % WT Binding (human CD33 variant I47N): 0.4 % of WT
Mean % WT Binding (human CD33 variant P48Q): 106 % of WT
Mean % WT Binding (human CD33 variant Y49I): 94.3 % of WT
Mean % WT Binding (human CD33 variant R122S): 3.4 % of WT
Mean % WT Binding (human CD33 variant K52F): 3.9 % of WT
Mean % WT Binding (human CD33 variant R122T): 1.5 % of WT
Mean % WT Binding (human CD33 variant M120L): 124 % of WT
Mean % WT Binding (human CD33 variant I47W): 0.6 % of WT
Mean % WT Binding (human CD33 variant P48M): 87.5 % of WT
Mean % WT Binding (human CD33 variant Y50R): 109 % of WT
Mean % WT Binding (human CD33 variant K52D): 5.3 % of WT
Mean % WT Binding (human CD33 variant Y49Q): 17.4 % of WT
Mean % WT Binding (human CD33 variant Y50S): 123 % of WT
Mean % WT Binding (human CD33 variant Y49T): 76.3 % of WT
B1: Refmab #2 (antibody, human IgG1, V domains shown)
VH: QVQLVQSGAEVKKPGSSVKVSCKASGGTFSDYAISWVRQAPGQGLEWMGRIIPILGVADYAQKFQGRVTITADKSTRTAYMELSSLRSEDTAVYYCARNWADAFDIWGQGTMVTVSS
VL: DIQLTQSPSSLSASVGDRVTITCRASQGISSVLAWYQQKPGKAPKLLIYDASSLESGVPSRFSGSGSGTDFTLTISSLQPEDFATYYCQQFDSSITFGQGTKLEIK
notes: Tested in IgG format; human IgG1 Fc silent (PG-LALA)

Mean % WT Binding (human CD33 N53A): 69 % WT
Mean % WT Binding (human CD33 L78A): 111 % WT
Mean % WT Binding (human CD33 Q83A): 104 % WT
Mean % WT Binding (human CD33 L38A): 96.8 % WT
Mean % WT Binding (human CD33 F90A): 82.3 % WT
Mean % WT Binding (human CD33 V25A): 49.1 % WT
Mean % WT Binding (human CD33 P46A): 135 % WT
Mean % WT Binding (human CD33 R89A): 71.6 % WT
Mean % WT Binding (human CD33 D18A): 110 % WT
Mean % WT Binding (human CD33 P55A): 95.4 % WT
B2: Refmab #4 (antibody, V domains shown)
VH: QVQLVQSGAEVKKPGESVKVSCKASGYTFTNYGMNWVKQAPGQGLEWMGWINTYTGEPTYADKFQGRVTMTTDTSTSTAYMEIRNLGGDDTAVYYCARWSWSDGYYVYFDYWGQGTSVTVSS
VL: DIVMTQSPDSLTVSLGERTTINCKSSQSVLDSSTNKNSLAWYQQKPGQPPKLLLSWASTRESGIPDRFSGSGSGTDFTLTIDSPQPEDSATYYCQQSAHFPITFGQGTRLEIK
notes: Full-length format is human IgG1 Fc silent (PG-LALA); The alanine scan used IgG or Fab

Mean % WT Binding (human CD33 N53A): 116 % WT
Mean % WT Binding (human CD33 L78A): 113 % WT
Mean % WT Binding (human CD33 Q83A): 103 % WT
Mean % WT Binding (human CD33 L38A): 192 % WT
Mean % WT Binding (human CD33 F90A): 138 % WT
Mean % WT Binding (human CD33 V25A): 109 % WT
Mean % WT Binding (human CD33 P46A): 8.8 % WT
Mean % WT Binding (human CD33 R89A): 126 % WT
Mean % WT Binding (human CD33 D18A): 37.8 % WT
Mean % WT Binding (human CD33 P55A): 142 % WT
B3: Refmab #3 (antibody, V domains shown)
VH: QVQLVQSGAEVKKPGSSVKVSCKASGYTFTDYNMHWVRQAPGQGLEWIGYIYPYNGGTGYNQKFKSKATITADESTNTAYMELSSLRSEDTAVYYCARGRPAMDYWGQGTLVTVSS
VL: DIQMTQSPSSLSASVGDRVTITCRASESVDNYGISFMNWFQQKPGKAPKLLIYAASNQGSGVPSRFSGSGSGTDFTLTISSLQPDDFATYYCQQSKEVPWTFGQGTKVEIK
notes: as for B2
